We go through one substance from US9081017.

The target of the assay is TNFR2 (human, endogenous in kidney tissue and cultured EC) (human) (UniProt P20333). Briefly: cell-based or functional assay.
Chain of TNFR2 (human, endogenous in kidney tissue and cultured EC) (human) (P20333 23-461): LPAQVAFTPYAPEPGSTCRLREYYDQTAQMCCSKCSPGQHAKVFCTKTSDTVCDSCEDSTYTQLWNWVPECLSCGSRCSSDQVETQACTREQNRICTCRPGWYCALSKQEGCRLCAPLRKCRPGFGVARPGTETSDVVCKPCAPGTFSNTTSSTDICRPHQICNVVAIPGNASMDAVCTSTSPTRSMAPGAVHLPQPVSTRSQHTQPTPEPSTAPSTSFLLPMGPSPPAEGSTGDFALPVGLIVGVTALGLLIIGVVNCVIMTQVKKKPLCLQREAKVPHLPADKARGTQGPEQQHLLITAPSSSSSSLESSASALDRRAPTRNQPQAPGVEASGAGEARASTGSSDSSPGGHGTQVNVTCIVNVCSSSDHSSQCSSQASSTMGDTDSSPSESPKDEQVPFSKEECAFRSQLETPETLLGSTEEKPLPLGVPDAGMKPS

Turning to “R2-TNF (TNF mutein D143N, A145R) (from UniProt P01375 77-233) (ligand)”, the Proliferative index (PI), percentage of PCNA-positive tubular cell nuclei, human kidney organ culture stood at 50%.
